Here are results for nine molecules from patent US20260242839A1, “GLYCOSIDE PRODUCT BIOSYNTHESIS AND RECOVERY” (Manus Bio Inc., priority 2023, published 2026).

The test system of assay [1] is Mog. IIE or Mog. IE. Kind of assay: branched glycosylation reactions by cells expressing UGT enzymes. Conditions: Mog. IIE or Mog. IE fed; 37° C., 48 hr; LC-MS/MS. In kind it is cell-based, E. coli. The method, then: Mog. IIE or Mog. IE was fed to cells expressing various UGT enzymes. Reactions were incubated at 37° C. for 48 hr. Products were quantified by LC-MS/MS with authentic standards of each compound. “Indirect” evidence means that consumption of substrate was observed.

Assay [2] deals with steviol glycoside. Kind of assay: steviol glycoside bioconversion by E. coli expressing individual mutations of UGT SEQ ID NO: 13. To be noted: fold improvement of % conversion vs parent UGT SEQ ID NO: 13; stevia leaf extract and glucose fed; 37° C., 48 hr. In kind it is cell-based. An excerpt:
A UGT enzyme referred to as MbUGT1,2 is described in U.S. Pat. No. 10,743,567, which is hereby incorporated by reference. An engineered version of MbUGT1,2 (SEQ ID NO: 13) is described in US 2020/0087692, which is hereby incorporated by reference in its entirety. The UGT enzyme of SEQ ID NO: 13 was further engineered to improve activity for steviol glycoside bioconversion. […] Fold improvement is with respect to % steviol glycoside conversion of the parent UGT enzyme (SEQ ID NO: 13). SEQ ID NO: 14 has the following mutations from SEQ ID NO: 13: G5N, F186T, V397S. Stevia leaf extract and glucose were fed to the bioconversion strains. Bioconversion took place at 37° C. for 48 hr. Data were quantified by reverse phase LC DAD to quantify conversion of steviol glycosides.
Fold improvement (FI) is with respect to % steviol glycoside conversion.

B1: SEQ ID NO: 74: CcUGT_1,6 (Coffea canephora) (protein, listed as Coffea canephora)
chain: MAENHATFNVLMLPWLAHGHVSPYLELAMKLTARNFNVYLCSSPATLSSVRSKLTEKFSQSIHLVELHLPKLPELPAEYHTTNGLPPHLMPTLKDAFDMAKPNFCNVLKSLKPDLLIYDLLQPWAPEAASAFNIPAVVFISSSATMTSFGLHFFKNPGTKYPYGNTIFYRDYESVFVENLKKRDRDTYRVVNCMERSSKIILIKGFKEIEGKYFDYFSCLTGKKVVPVGPLVQDPVLDDEDCRIMQWLNKKEKGSTVFVSFGSEYFLSKEDMEEIAHGLELSNVDFIWVVRFPKGENIVIEETLPKGFFERVGERGLVVNGWAPQAKILTHPNVGGFVSHCGWNSVMESMKFGLPIVAMPMHLDQPINARLIEEVGAGVEVLRDSKGKLHRERMAETINKVTKEASGEPARKKARELQEKLELKGDEEIDDVVKELVQLCATKNKRNGLHCYN
As for B1, in assay [1], the “C3 1-2” value is on record as “No”, the “C3 1-6” value is recorded as “Yes”, the “C24 1-2” value is reported as “No” and the “C24 1-6” value is given as “Yes”.

B2: G210E: mutation to UGT enzyme of SEQ ID NO: 13 (protein)
chain: MATKGSSGMSLAERFWLTLSRSSLVVGRSCVEFEPETVPLLSTLRGKPITFLGLMPPLHEGRREDGEDATVRWLDAQPAKSVVYVALGSEVPLGVEKVHELALGLELAGTRFLWALRKPTGVSDADLLPAGFEERTRGRGVVATRWVPQMSILAHAAVGAFLTHCGWNSTIEGLMFGHPLIMLPIFGDQGPNARLIEAKNAGLQVARNDEDGSFDREGVAAAIRAVAVEEESSKVFQAKAKKLQEIVADMACHERYIDGFIQQLRSYKDDSGYSSSYAAAAGMHVVICPWLAFGHLLPCLDLAQRLASRGHRVSFVSTPRNISRLPPVRPALAPLVAFVALPLPRVEGLPDGAESTNDVPHDRPDMVELHRRAFDGLAAPFSEFLGTACADWVIVDVFHHWAAAAALEHKVPCAMMLLGSAEMIASIADERLEHAETESPAAAGQGRPAAAPTFEVARMKLIR
Consider B2, for which, in assay [2], the “FI %Stevioside→rebE” value is reported as 1.2 and the “FI %rebA→rebD” value is recorded as 1.2.

B3: A248G: mutation to UGT enzyme of SEQ ID NO: 13 (protein)
chain: MATKGSSGMSLAERFWLTLSRSSLVVGRSCVEFEPETVPLLSTLRGKPITFLGLMPPLHEGRREDGEDATVRWLDAQPAKSVVYVALGSEVPLGVEKVHELALGLELAGTRFLWALRKPTGVSDADLLPAGFEERTRGRGVVATRWVPQMSILAHAAVGAFLTHCGWNSTIEGLMFGHPLIMLPIFGDQGPNARLIEAKNAGLQVARNDGDGSFDREGVAAAIRAVAVEEESSKVFQAKAKKLQEIVGDMACHERYIDGFIQQLRSYKDDSGYSSSYAAAAGMHVVICPWLAFGHLLPCLDLAQRLASRGHRVSFVSTPRNISRLPPVRPALAPLVAFVALPLPRVEGLPDGAESTNDVPHDRPDMVELHRRAFDGLAAPFSEFLGTACADWVIVDVFHHWAAAAALEHKVPCAMMLLGSAEMIASIADERLEHAETESPAAAGQGRPAAAPTFEVARMKLIR
B3: in assay [2], the “FI %Stevioside→rebE” value amounted to 1.1 and the “FI %rebA→rebD” value is 1.1.

B4: C288F: mutation to UGT enzyme of SEQ ID NO: 13 (protein)
chain: MATKGSSGMSLAERFWLTLSRSSLVVGRSCVEFEPETVPLLSTLRGKPITFLGLMPPLHEGRREDGEDATVRWLDAQPAKSVVYVALGSEVPLGVEKVHELALGLELAGTRFLWALRKPTGVSDADLLPAGFEERTRGRGVVATRWVPQMSILAHAAVGAFLTHCGWNSTIEGLMFGHPLIMLPIFGDQGPNARLIEAKNAGLQVARNDGDGSFDREGVAAAIRAVAVEEESSKVFQAKAKKLQEIVADMACHERYIDGFIQQLRSYKDDSGYSSSYAAAAGMHVVIFPWLAFGHLLPCLDLAQRLASRGHRVSFVSTPRNISRLPPVRPALAPLVAFVALPLPRVEGLPDGAESTNDVPHDRPDMVELHRRAFDGLAAPFSEFLGTACADWVIVDVFHHWAAAAALEHKVPCAMMLLGSAEMIASIADERLEHAETESPAAAGQGRPAAAPTFEVARMKLIR
Turning to B4, in assay [2], the “FI %Stevioside→rebE” value is on record as 1.7 and the “FI %rebA→rebD” value stood at 1.5.

B5: F186T: mutation to UGT enzyme of SEQ ID NO: 13 (protein)
chain: MATKGSSGMSLAERFWLTLSRSSLVVGRSCVEFEPETVPLLSTLRGKPITFLGLMPPLHEGRREDGEDATVRWLDAQPAKSVVYVALGSEVPLGVEKVHELALGLELAGTRFLWALRKPTGVSDADLLPAGFEERTRGRGVVATRWVPQMSILAHAAVGAFLTHCGWNSTIEGLMFGHPLIMLPITGDQGPNARLIEAKNAGLQVARNDGDGSFDREGVAAAIRAVAVEEESSKVFQAKAKKLQEIVADMACHERYIDGFIQQLRSYKDDSGYSSSYAAAAGMHVVICPWLAFGHLLPCLDLAQRLASRGHRVSFVSTPRNISRLPPVRPALAPLVAFVALPLPRVEGLPDGAESTNDVPHDRPDMVELHRRAFDGLAAPFSEFLGTACADWVIVDVFHHWAAAAALEHKVPCAMMLLGSAEMIASIADERLEHAETESPAAAGQGRPAAAPTFEVARMKLIR
B5: in assay [2], the “FI %Stevioside→rebE” value turned out to be 1.8 and the “FI %rebA→rebD” value came out at 1.7.

B6: V91A: mutation to UGT enzyme of SEQ ID NO: 13 (protein)
chain: MATKGSSGMSLAERFWLTLSRSSLVVGRSCVEFEPETVPLLSTLRGKPITFLGLMPPLHEGRREDGEDATVRWLDAQPAKSVVYVALGSEAPLGVEKVHELALGLELAGTRFLWALRKPTGVSDADLLPAGFEERTRGRGVVATRWVPQMSILAHAAVGAFLTHCGWNSTIEGLMFGHPLIMLPIFGDQGPNARLIEAKNAGLQVARNDGDGSFDREGVAAAIRAVAVEEESSKVFQAKAKKLQEIVADMACHERYIDGFIQQLRSYKDDSGYSSSYAAAAGMHVVICPWLAFGHLLPCLDLAQRLASRGHRVSFVSTPRNISRLPPVRPALAPLVAFVALPLPRVEGLPDGAESTNDVPHDRPDMVELHRRAFDGLAAPFSEFLGTACADWVIVDVFHHWAAAAALEHKVPCAMMLLGSAEMIASIADERLEHAETESPAAAGQGRPAAAPTFEVARMKLIR
For the molecule B6, in assay [2], the “FI %Stevioside→rebE” value turned out to be 1.1 and the “FI %rebA→rebD” value is 1.1.

B7: F186M: mutation to UGT enzyme of SEQ ID NO: 13 (protein)
chain: MATKGSSGMSLAERFWLTLSRSSLVVGRSCVEFEPETVPLLSTLRGKPITFLGLMPPLHEGRREDGEDATVRWLDAQPAKSVVYVALGSEVPLGVEKVHELALGLELAGTRFLWALRKPTGVSDADLLPAGFEERTRGRGVVATRWVPQMSILAHAAVGAFLTHCGWNSTIEGLMFGHPLIMLPIMGDQGPNARLIEAKNAGLQVARNDGDGSFDREGVAAAIRAVAVEEESSKVFQAKAKKLQEIVADMACHERYIDGFIQQLRSYKDDSGYSSSYAAAAGMHVVICPWLAFGHLLPCLDLAQRLASRGHRVSFVSTPRNISRLPPVRPALAPLVAFVALPLPRVEGLPDGAESTNDVPHDRPDMVELHRRAFDGLAAPFSEFLGTACADWVIVDVFHHWAAAAALEHKVPCAMMLLGSAEMIASIADERLEHAETESPAAAGQGRPAAAPTFEVARMKLIR
B7: in assay [2], the “FI %Stevioside→rebE” value turned out to be 2.9 and the “FI %rebA→rebD” value came out at 2.3.

B8: F186I: mutation to UGT enzyme of SEQ ID NO: 13 (protein)
chain: MATKGSSGMSLAERFWLTLSRSSLVVGRSCVEFEPETVPLLSTLRGKPITFLGLMPPLHEGRREDGEDATVRWLDAQPAKSVVYVALGSEVPLGVEKVHELALGLELAGTRFLWALRKPTGVSDADLLPAGFEERTRGRGVVATRWVPQMSILAHAAVGAFLTHCGWNSTIEGLMFGHPLIMLPIIGDQGPNARLIEAKNAGLQVARNDGDGSFDREGVAAAIRAVAVEEESSKVFQAKAKKLQEIVADMACHERYIDGFIQQLRSYKDDSGYSSSYAAAAGMHVVICPWLAFGHLLPCLDLAQRLASRGHRVSFVSTPRNISRLPPVRPALAPLVAFVALPLPRVEGLPDGAESTNDVPHDRPDMVELHRRAFDGLAAPFSEFLGTACADWVIVDVFHHWAAAAALEHKVPCAMMLLGSAEMIASIADERLEHAETESPAAAGQGRPAAAPTFEVARMKLIR
On to B8, for which, in assay [2], the “FI %Stevioside→rebE” value came out at 2.6 and the “FI %rebA→rebD” value is 2.1.

B9: SEQ ID NO: 78: OsJUGT_1,6 (Oryza sativa) (protein, listed as Oryza sativa)
chain: MAQAERERLRVLMFPWLAHGHINPYLELATRLTTTSSSQIDVVVHLVSTPVNLAAVAHRRTDRISLVELHLPELPGLPPALHTTKHLPPRLMPALKRACDLAAPAFGALLDELSPDVVLYDFIQPWAPLEAAARGVPAVHFSTCSAAATAFFLHFLDGGGGGGGRGAFPFEAISLGGAEEDARYTMLTCRDDGTALLPKGERLPLSFARSSEFVAVKTCVEIESKYMDYLSKLVGKEIIPCGPLLVDSGDVSAGSEADGVMRWLDGQEPGSVVLVSFGSEYFMTEKQLAEMARGLELSGAAFVWVVRFPQQSPDGDEDDHGAAAARAMPPGFAPARGLVVEGWAPQRRVLSHRSCGAFLTHCGWSSVMESMSAGVPMVALPLHIDQPVGANLAAELGVAARVRQERFGEFEAEEVARAVRAVMRGGEALRRRATELREVVARRDAECDEQIGALLHRMARLCGKGTGRAAQLGH
On to B9, for which, in assay [1], the “C3 1-2” value is “No”, the “C3 1-6” value was “No”, the “C24 1-2” value is given as “Yes” and the “C24 1-6” value is listed as “No”.
